experiment: soluble on expression in E. coli; label from the status in PepcDB or PDB records

| Sequence | soluble on expression in E. coli |
| --- | --- |
| MVPEVFAQARLRMDQLTKPPRALGYLEEVALRLAALQGRVKPELGRGAVVVAAADHGVVAEGVSAYPQEVTRQMVLNFLRGGAAINQFALAADCAVYVLDVGVVGELPDHPGLLKRKVRPGTANLAQGPAMTPEEAERALLAGREAARRAIAEGATLLAAGDMGIGNTTAAAALTAALLGLPPEAVVGRGTGVGEEGLRRKRQAVARALARLHPGMGPLEVAAEVGGIELVAIAGIYLEGYEAGLPLVLDGFPVTAGALLAWKMAPGLRDHLFAGHLSREPGHRHQLEALGLRPLLDLDLALGEGTGAVLAMPLLRAAARILHMATFQEAGVSRG | soluble |
| MILKPENEKKLIIDVLKKFGVPEEDAKITADVFVDADLKGFTSHGIGRFPQYITALKLGNINPKPDIKIVKESPATAVIDGDLGLGQVVGKKAMELAIKKAKNVGVGVVATRNANHFGIAGYYSELAMNQDMIGITITNTEPAMAPFGGKEKILGTNPIAIAFKGNKYKFSLDMATASIARGKILEALRKKIKIPEGCAVDKDGKPTTDPAKALEGCILPFGGPKGYGLALAIEMLSAIGGAEVGTKVKGTANPEERCTKGDLFIAINPEFFMGKEEFKRKVDELLDEIKNSEPAEGFEILIPGEIEERNKMKRKDGFEIDKNLYNQLKEICNELGLNIEDYIE | soluble |
| MSLKLPVPSPMRLAVTHEGRSIIYIPSPEYAVASGRLEPAWLEVFYNPAMEFNRDVSVVAASALRRTGLLTRSGVAFDAHAGVGVRGVRYAVEAGYVKVIMNDINPKASMLAALNARANGLEPGSYMIFNKESNSLMFHLSRERPTPVSLIDIDPYGSPAPFVDAALALSGKGTVVAMTATDLAVLEGGKARAAVRRYMLRSVSKTPVSKETGLRVLLGYVARVAAAHDKAVKPLLAYYADHYYRVYVAVERGARRSDSMLEENLGRLVYCPETGVALALSYAEDPASACGGSYVVAADPAWIGSLGDQAFLEAMLNIAVEAVWLGTRPRVEKLLNTLHGEAPLSPRSIYVSLTSVASKARVNTPKKSKVVELLRSMGYRAVATHFSGEGVRTDAPWGEVLEAVVKLGSSGEGHHHHHH | not soluble |
| MDSSVPMIDLSSGDDEEVEVAMRRSYLLPPVPERPDGFPSLLFGNGNLSRSTLSINQEISMAPSPFSEITVSSQRPLVARSGSNSSEHNLQIKEAVKKKPVADIAHVSGTFVCVCVRGAQKNFYQKYLIATPSIPKLNTFE | soluble |
| MSTPDGDEKEQCFHRAIAKTSIYLDREPGNPELTVWLAINKASLAGAQGGFGALSLAKEAKSLLEGVIATSPQTLDGSAYTSLGSLYYKVPGWPIGFGDDDKAEEMLKKALEINPKGIDPNYFYGDFLAEEGRDKEAKVYLTRAMQASPRPLEHHHHHH | not soluble |
| MGSDKIHHHHHHMDTDWSNLAVRLERLLERFERIIDRHDPVLPRDPAFFDGAIAFRWRRSGEQGTFEPVTHPHLPDPADLVGIDLVREDLIRNTAQFMDGYPANNVLLWGERGTGKSTCVKGMLRLFADRGLRLVEVQRDDLMSLPALIAALRSVPRRFILFCDDLSFGEGEGGYRELKALLEGSIEAKPTNILFYATSNRRHLLPERMEDNLSSEIHPEEAVSEKLSLADRFGMALGFYPFSQDVYLSIVERYAEKFALPMEREALRKEAHLWAMYRGSRSGRSARQFIDDLAGRLGVRLNDR | not soluble |
| MGSDKIHHHHHHMNFEIPQSLIHPLLALIQAESPLARQLREHGVCHGNMVVSARLFDAQSLSSLYTLSKAQNERELLFQMLALDNIYNAPQARTIPGLEMLVAGLIAYLSRDAIDGWLYQRSRDGVLLPWLVQRIRHVEPEQGMPYVAIDMLANTMLSANSEQTDPTRRRSGMTTSIIVTRDEIVDRTIPELLAEFGFFKECAEFRREYEIHAQRFVRYQRSFGAQFIATRAGFTVEGKNTVALARIADGVTARCINDEERLERRFEMNCDAEFWRRAGVVSGFEKVPLHGYVHLFHLEWHQNIWVHVQHLSEYKYRPELRDKLVLPDHHRDLIDILTSHMDVLVQDFVPGKSGGTTILCQGAPGLGKTLTAEIYAEVVGKPLYRVHSGQLGTTAASVGATLMEILRRAMRWNAVLLLDEADVYIRRRDNDLEHNAIVAEFLRTLEYFSGLLFMTTNRTGDVDDAILSRCIATIQYETPCREDAARLWRLQADQCGVSLQDELVDALTAAYPKASGRDIKELMKLATRYSEAKQIALSEDVFRLCAQFRAIE | not soluble |
| MSLAKVLVIDEDRSTLARLELLLTKDGYETVTASTGTDGLNRYVERYPDLVILDVFLSDVGGFTVLEELLEENEQAMVILMTAQLDMETAIRAMKLGAFDYVPKTADMAELLSVVHKASNTLETDRQQGGLSGEAFRNYKAGDIIGAGREMREIFKMVGVLSRSRATVLIEGESGTGKELVAKVIHKHTSSNEPFIAVNCSAIVETLLESELFGHEKGSFTSAFNRQLGKFELGRYGTVFLDEISEMSINLQAKLLRVLQEMEFERVGGKDKIQVHARIITATNKNLRTLVREGKFRADLYYRLNIVSLKIPPLRERQEDIPLLVNHLIAKIGRDLSRRISGVSEEVMEAFLRYTWPGNVRELENLLVRAGVMAKGRILDKSDFPELFKESGEGHHHHHH | not soluble |
| MSSKNPVDEQPCCGSHEGSHQDPAPETLVVEKEVNNGEKKIRIAVVGCSHGEMDAIYETMTLIEQKNGYKFDLLICCGDYQAVRNYGDLPHMSIPPKYRSLQTFYKYYSGEQKAPVLTLFIGGNHEASGYLCELPNGGWVAPNIYYMGFANCIRFANLRIAGLSGIFSQGDFQFSHYERPSFSERDVKSAYHVRNVDMFRLRQLKSDNENKISNPIDIMLSHDWPGGIPDFGDKEWLFRKKDLFEADHNSGKLGNPSGMKLIYDCRPRYYLAAHLHIAFAALVPHKGSGSGRPQPTRFLSLDKPIPGRKFMQALELNVADDAKLELSYDPQWLAILRNTDLLTTGTKEQLILPDMASNRPCVYERKDFRPTAEELKEIEKLGDLTIRTDSFQQTAPPLKEITESSKNVPPSAYYRNPQSAEFCQWLGIRDLNQMLVEKTSEHVGTPYYMMTQDDANAKPNQDDVDFGDEDFVIDRGHTSDEPEAKKSRLDEDKFEAVPSE | soluble |
| MVQLDGGQFEMGTKATDGKDGESPVMQVKVLPFAIDKYPVTNRDFREFVRAKKYKTEAEAFGWSFVFEDFVSEELKKKVTQKLESAPWWLPVERAFWRQVSNLSVPLLLSGGSKGLFAAE | not soluble |
| MGSDKIHHHHHHMRALLSGYYGKGNGGDEALLATLLQMLPSHVTPVVLSGNPEETSDRYGVESHNRMSLTSVLPALRSCDAFIWGGGSLIQDVTSSISPFYYGGLMALAQKMGLKTVAWAQGIGPLVRPQTRWLAQHNFSGCTTVSVRDRVSAALLADWQIPYILAPDPVWALQAKPFPELANLPTPRIAVTLRNHPQLTAPRLANLTQALVSLQKSTQAFILLLPFQKSEDLAIAQAIQPQLKDVSEIVCIEDPQILKGVFRGVEMAIGMRLHSLIMAASEGCRCFALSYDPKINRLMEDLAIPGWDLANLPDNANVISKTWIDFYTNAQPLASEKITTLVEGAFMHRELLRKALGRIN | not soluble |
| MSLAPRPRILICEDDPDIARLLNLMLEKGGFDSDMVHSAAQALEQVARRPYAAMTVDLNLPDQDGVSLIRALRRDSRTRDLAIVVVSANAREGELEFNSQPLAVSTWLEKPIDENLLILSLHRAIDNMAEGKPRILHVEDDLDIQRIAAAIAQNFATFEFACTLQEARDQLASHHYDLVLLDLTLKDGSGWELLSTIEALDPAPPVVVFSASKLNMMESQRVEAVLVKADTSNEELIRVLQRVLDDSLWGTVDSPLSEGHHHHHH | soluble |
| MGSDKIHHHHHHMDVIIDKNSGYCFGVEFAIQMAEDEMATGEPLFCLGDIVHNSMEVERLAKKGLKIIDREELKKLSDCKVLIRAHGEPPETYQLALENNIELVDASCPVVLKLQNRVKASFDAIDSKDGQIVIYGQEGHAEVIGIAGQTGDKAIVITTEKDLDKIDFEKPVTLYSQTTKSTQGFYKMKDLIEARVAEAGKNVDENFEYNDSICRQVSNREPQLRKFSKEFDVVIFVSGKKSSNGKALYGVCKQENERSYFVENETEIEPSWIRATDNVGICGATSTPMWLMEKVQNYIQAHSWN | not soluble |

Reference: the DeepSol protein solubility set
